The values that follow come from paper PMC7278498, “Crystal structures of the GH18 domain of the bifunctional peroxiredoxin–chitinase CotE from Clostridium difficile” (Acta Crystallographica. Section F, Structural Biology …, 2020).

Data set [1] concerns the target T1, pentapeptide Gly-Pro-Ala-Met-Lys (C. difficile).
T1 construct: residues 349 and 350 of CotE of Clostridium difficile; the side chain of residue 5 (Lys) is uncertain in the density; also called GPAMK; pentapeptide ligand; source: derived from the N-terminus of the E. coli-made CotE(349–712) after HRV 3C protease cleavage; co-purified and co-crystallised with the protein
As to the kind of experiment: crystal structure; monoclinic form, P2_(1), 1.3 Å; 200 mM ammonium phosphate, 22.5% PEG 3350, 291 K; one protein molecule per asymmetric unit; peptide found in the active-site groove. Conditions: both partners purified.

Data set [2] concerns the molecule itself. The experiment in a line: crystal structure; hexagonal form, P6_(1)22, ∼2.1 Å; protein washed with 2 M guanidine hydrochloride on the Ni column (partially unfolded/refolded), tag then removed; 0.1 M sodium malonate pH 5.5, 13% PEG 3350, C8E5; dimer formed with a crystallographic symmetry mate.

B1: CotE(349–712), C-terminal fragment of CotE comprising the GH18 chitinase domain (domain or fragment)
chain: GPAMKTLKDSKKLVRPQITDPYNPIVENANCPDINPIVAEYVLGNPTNVDAQLLDAVIFAFAEIDQSGNLFIPYPRFLNQLLALKGEKPSLKVIVAIGGWGAEGFSDAALTPTSRYNFARQVNQMINEYALDGIDIDWEYPGSSASGITSRPQDRENFTLLLTAIRDVIGDDKWLSVAGTGDRGYINSSAEIDKIAPIIDYFNLMSYDFTAGETGPNGRKHQANLFDSDLSLPGYSVDAMVRNLENAGMPSEKILLGIPFYGRLGATITRTYDELRRDYINKNGYEYRFDNTAQVPYLVKDGDFAMSYDDALSIFLKTQYVLRNCLGGVFSWTSTYDQANILARTMSIGINDPEVLKEELEGIYGQF
notes: CotE spore coat protein (peroxiredoxin-chitinase) of Clostridium difficile, residues 349-712; In the monoclinic crystal the model holds Ile363-Phe712; In the hexagonal crystal the protein is a 3D domain-swapped dimer with an intermolecular Cys376-Cys670 disulfide; also called CotE chitinase domain; chitinase domain of CotE; source: E. coli BL21(DE3), purified (HisTrap, HRV 3C cleavage, second …)
What is called stoichiometry N is a count of units in the complex or per binding partner. As for B1, the binding result in data set [1] was “binds”. In addition, the “stoichiometry N” value in data set [2] was 2.
